Measured values reported in patent publication CN105585631A (BEIJING HEALTH GUARD BIOTECHNOLOGY CO LTD, dated 2016).
Changes are numbered by the printed parent chain.

T1: HPV6 VLP (HPV6, UniProt P69899 1-500)
T1 sequence: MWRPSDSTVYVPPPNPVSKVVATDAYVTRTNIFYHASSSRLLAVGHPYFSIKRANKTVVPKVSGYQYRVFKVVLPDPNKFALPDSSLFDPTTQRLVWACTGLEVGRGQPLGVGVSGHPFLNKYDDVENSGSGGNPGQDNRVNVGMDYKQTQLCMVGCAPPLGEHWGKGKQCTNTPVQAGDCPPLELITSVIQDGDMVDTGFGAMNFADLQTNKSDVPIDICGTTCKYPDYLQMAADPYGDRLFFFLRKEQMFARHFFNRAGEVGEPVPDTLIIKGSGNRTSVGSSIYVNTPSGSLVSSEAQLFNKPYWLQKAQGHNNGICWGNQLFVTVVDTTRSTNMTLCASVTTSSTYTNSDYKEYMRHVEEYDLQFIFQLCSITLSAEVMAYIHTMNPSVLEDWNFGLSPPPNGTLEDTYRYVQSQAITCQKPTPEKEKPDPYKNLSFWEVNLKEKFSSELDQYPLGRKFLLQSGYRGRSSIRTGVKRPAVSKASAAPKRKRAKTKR

T2: HPV11 VLP (HPV11, UniProt P04012 1-501)
T2 sequence: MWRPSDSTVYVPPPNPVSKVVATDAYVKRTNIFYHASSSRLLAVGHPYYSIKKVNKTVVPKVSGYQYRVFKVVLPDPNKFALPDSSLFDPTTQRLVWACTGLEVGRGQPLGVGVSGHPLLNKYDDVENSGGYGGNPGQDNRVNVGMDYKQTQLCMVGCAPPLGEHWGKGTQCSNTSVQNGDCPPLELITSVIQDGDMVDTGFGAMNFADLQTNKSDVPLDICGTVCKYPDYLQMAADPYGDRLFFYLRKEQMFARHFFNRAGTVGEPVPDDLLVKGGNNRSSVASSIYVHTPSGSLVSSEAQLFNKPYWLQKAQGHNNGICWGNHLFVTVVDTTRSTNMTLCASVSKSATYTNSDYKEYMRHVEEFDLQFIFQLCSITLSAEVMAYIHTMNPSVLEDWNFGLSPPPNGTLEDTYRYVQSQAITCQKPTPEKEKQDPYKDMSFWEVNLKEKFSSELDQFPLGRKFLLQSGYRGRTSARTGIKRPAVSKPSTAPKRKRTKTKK

T3: HPV31 VLP (HPV31, UniProt P17388 1-504)
T3 sequence: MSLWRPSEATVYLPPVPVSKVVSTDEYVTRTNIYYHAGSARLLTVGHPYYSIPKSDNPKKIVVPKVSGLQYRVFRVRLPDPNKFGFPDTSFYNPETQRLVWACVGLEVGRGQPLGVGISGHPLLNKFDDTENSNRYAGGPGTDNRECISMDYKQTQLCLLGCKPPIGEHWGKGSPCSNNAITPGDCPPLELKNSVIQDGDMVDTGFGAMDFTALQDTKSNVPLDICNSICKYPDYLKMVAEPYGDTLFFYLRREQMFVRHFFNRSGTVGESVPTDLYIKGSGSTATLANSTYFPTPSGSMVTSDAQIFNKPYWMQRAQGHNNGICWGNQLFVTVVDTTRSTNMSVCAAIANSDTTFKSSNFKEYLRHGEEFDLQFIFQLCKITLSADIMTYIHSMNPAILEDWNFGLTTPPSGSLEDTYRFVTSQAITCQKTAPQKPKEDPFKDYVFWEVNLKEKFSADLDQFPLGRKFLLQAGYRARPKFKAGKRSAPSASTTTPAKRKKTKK

T4: HPV33 VLP (HPV33, UniProt P06416 1-499)
T4 sequence: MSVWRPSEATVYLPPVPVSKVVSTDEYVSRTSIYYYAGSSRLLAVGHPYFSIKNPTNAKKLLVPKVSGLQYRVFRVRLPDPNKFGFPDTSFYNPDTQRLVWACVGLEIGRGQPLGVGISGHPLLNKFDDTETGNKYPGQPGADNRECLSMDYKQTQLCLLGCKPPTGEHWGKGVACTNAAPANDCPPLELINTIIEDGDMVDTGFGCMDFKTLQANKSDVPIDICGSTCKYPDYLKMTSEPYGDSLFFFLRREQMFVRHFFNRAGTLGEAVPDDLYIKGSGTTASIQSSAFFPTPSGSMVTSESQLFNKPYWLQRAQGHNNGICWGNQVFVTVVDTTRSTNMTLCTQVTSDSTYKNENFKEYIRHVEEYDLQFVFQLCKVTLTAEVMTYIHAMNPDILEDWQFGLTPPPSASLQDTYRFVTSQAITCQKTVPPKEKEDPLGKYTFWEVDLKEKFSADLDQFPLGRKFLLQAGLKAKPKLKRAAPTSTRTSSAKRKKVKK

T5: HPV45 VLP (HPV45, UniProt P36741 30-539)
T5 sequence: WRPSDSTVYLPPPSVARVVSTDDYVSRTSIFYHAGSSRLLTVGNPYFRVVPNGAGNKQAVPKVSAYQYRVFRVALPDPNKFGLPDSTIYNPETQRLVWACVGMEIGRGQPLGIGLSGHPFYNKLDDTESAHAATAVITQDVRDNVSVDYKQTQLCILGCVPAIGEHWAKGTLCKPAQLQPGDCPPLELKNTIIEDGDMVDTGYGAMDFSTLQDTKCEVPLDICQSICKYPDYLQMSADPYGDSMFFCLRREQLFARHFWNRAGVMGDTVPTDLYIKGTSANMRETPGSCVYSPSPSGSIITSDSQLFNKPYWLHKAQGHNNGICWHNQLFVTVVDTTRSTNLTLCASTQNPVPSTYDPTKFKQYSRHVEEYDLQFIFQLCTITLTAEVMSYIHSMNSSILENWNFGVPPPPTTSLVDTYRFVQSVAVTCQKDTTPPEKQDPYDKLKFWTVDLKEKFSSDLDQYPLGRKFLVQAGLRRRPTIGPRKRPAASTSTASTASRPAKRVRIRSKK

T6: HPV-18 L1 VLP (HPV18, UniProt P06794 62-568)
T6 construct: also called HPV18 VLP
T6 sequence: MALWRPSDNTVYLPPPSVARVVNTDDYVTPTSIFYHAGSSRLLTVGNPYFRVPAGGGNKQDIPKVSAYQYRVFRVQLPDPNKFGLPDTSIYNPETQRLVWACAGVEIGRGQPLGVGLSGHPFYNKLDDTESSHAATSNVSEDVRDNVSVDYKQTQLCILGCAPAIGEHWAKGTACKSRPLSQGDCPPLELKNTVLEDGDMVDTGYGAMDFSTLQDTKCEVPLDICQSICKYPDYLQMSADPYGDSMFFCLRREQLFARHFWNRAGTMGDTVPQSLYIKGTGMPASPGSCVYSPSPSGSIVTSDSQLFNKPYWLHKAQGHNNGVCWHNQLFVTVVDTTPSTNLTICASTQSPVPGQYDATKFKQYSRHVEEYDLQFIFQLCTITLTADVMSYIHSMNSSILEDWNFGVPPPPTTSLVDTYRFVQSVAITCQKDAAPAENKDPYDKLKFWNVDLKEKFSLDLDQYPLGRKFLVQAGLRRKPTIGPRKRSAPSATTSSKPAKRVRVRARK

T7: HPV-58 L1 VLP (HPV58, UniProt P26535 27-524)
T7 construct: also called HPV58VLP
T7 sequence: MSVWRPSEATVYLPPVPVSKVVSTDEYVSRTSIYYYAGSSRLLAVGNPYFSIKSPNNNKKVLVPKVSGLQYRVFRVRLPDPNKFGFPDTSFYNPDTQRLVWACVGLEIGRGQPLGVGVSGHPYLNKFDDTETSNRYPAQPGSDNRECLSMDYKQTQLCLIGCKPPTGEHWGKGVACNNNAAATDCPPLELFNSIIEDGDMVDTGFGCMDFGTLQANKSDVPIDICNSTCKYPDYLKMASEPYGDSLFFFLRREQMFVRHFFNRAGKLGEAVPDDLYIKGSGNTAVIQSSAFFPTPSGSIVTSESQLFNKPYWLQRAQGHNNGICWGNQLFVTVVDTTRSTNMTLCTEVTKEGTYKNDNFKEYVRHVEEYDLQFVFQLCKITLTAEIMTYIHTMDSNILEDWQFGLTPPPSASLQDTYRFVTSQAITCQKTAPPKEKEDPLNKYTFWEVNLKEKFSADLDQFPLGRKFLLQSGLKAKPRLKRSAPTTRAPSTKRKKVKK

B1: 单克隆抗体4G12 (杂交瘤细胞株4G12, CGMCC 11298) (antibody, V domains shown)
VH: VKLQQSGAELVKPGASVKLSCTASGFNIKDTYMHWVKQRPEQGLEWIGRIDPANGNPQYDPKFQGKATITADTSSNTACLQLSSLTSEDTAVFYCAREVGGYYFDYWGQGTTVTVSS
VL: DIQLTRSPAIMSASPGEKVTITCSASSSVSYMHWFQQKPGTSPKLWIYSTSNLASGVPARFSGSGSGTSYSLTISRMEAEDAATYYCQQRSSYPWTFGGGTKLEI
B2: 单克隆抗体5A6 (杂交瘤细胞株5A6, CGMCC 11299) (antibody, V domains shown)
VH: B1 VH with P57T, Q58E, K62N, A71S, C79Y, Q81H, F93Y
VL: DIQLTQSPSSMSASLGDRITITCQATQDIVKNLNWYQQKPGKPPSFLIYYATELAEGVPSRFSGSGSGSDYSLTISNLESEDFADYYCLQFYEFPLTFGAGTKLEI
notes: Capture antibody of the sandwich kit; also called 克隆5A6

Experiments:
[1] = target: HPV-16 L1 VLP (重组人乳头瘤病毒-16型VLP蛋白, 未变性) (人乳头瘤病毒16型 (HPV16)) (UniProt P03101); assay: indirect ELISA, native VLP 2 ug/ml coated, antibody 0.3 ug/ml
Sequence of UniProt P03101 (P03101 whole entry): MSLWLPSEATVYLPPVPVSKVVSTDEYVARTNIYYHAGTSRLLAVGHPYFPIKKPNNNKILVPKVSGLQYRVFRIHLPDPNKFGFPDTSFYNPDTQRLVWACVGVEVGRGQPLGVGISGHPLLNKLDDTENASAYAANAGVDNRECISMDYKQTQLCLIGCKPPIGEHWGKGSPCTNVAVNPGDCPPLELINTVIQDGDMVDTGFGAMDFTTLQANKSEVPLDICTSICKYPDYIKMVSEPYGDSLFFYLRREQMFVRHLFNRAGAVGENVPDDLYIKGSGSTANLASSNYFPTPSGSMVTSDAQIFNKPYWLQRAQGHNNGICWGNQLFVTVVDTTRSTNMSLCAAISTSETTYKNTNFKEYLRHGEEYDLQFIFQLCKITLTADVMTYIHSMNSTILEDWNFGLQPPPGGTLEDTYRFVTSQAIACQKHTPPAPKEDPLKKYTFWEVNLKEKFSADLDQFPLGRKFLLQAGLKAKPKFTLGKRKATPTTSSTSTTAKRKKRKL

[2] = target: HPV-16 L1 VLP (重组人乳头瘤病毒-16型VLP蛋白, 未变性) (人乳头瘤病毒16型 (HPV16)) (UniProt P03101); assay: indirect ELISA, HPV16 VLP 200 ng/well coated, antibody at 1, 0.2 and 0.04 ug/ml
[3] = target: HPV-16 L1 VLP (重组人乳头瘤病毒-16型VLP蛋白, 未变性) (人乳头瘤病毒16型 (HPV16)) (UniProt P03101); assay: competition ELISA on coated HPV16 VLP; HRP-labelled antibody 0.3 ug/ml; competitor: WHO international standard 05/134 at 0.5 IU/ml
[4] = target: T1, HPV6 VLP; assay: SPR, BIACORE 3000
[5] = target: T2, HPV11 VLP; assay: SPR, BIACORE 3000
[6] = target: T3, HPV31 VLP; assay: SPR, BIACORE 3000
[7] = target: T4, HPV33 VLP; assay: SPR, BIACORE 3000
[8] = target: T5, HPV45 VLP; assay: SPR, BIACORE 3000
[9] = target: T6, HPV-18 L1 VLP; assay: indirect ELISA, VLP 2 ug/ml coated
[10] = target: T7, HPV-58 L1 VLP; assay: indirect ELISA, VLP 2 ug/ml coated

Binder	OD450 [1]	信号强度 (ELISA) [2]	抑制率 [3]	binding result [4]	binding result [5]	binding result [6]	binding result [7]	binding result [8]	binding result [9]	binding result [10]
B1	> 1 OD450	> 1	> 40%							
B2	> 1 OD450	> 1	> 40%	no binding (tested: antibody up to 20nmol/L)	no binding (tested: antibody up to 20nmol/L)	no binding (tested: antibody up to 20nmol/L)	no binding (tested: antibody up to 20nmol/L)	no binding (tested: antibody up to 20nmol/L)	no binding (tested: 0.3μg/ml)	no binding (tested: 0.3μg/ml)
